Patent CN110144011A (SHANGHAI NOVAMAB BIOPHARMACEUTICALS CO LTD, dated 2019)
Substitutions are numbered along the chain they refer to. Values belong to the molecule of their own block, whether it stands above or below them.

How the values were obtained:
[1] = target: TIM-3 on HEK 293T TIM-3稳转细胞 (UniProt Q8TDQ0); experiment: flow cytometry on HEK 293T TIM-3 stable cells, 6 ug antibody per 5x10^5 cells, goat-anti-human FITC
[2] = target: TIM-3 on HEK 293T TIM-3稳转细胞 (UniProt Q8TDQ0); experiment: flow cytometry on HEK293T TIM-3 stable cells, 6 ug nanobody per well, anti-His Alexa Fluor 488
TIM3(ECD)-Fc抗原 = target: T1, TIM3(ECD)-Fc抗原 (human, UniProt Q8TDQ0 22-202); experiment: ELISA of crude periplasmic extract on antigen-coated plate, anti-HA detection; clones positive at OD ratio to control >3
T1 construct: extracellular domain;domain: Fc; Made in HEK293F cells, purified on Protein A; also called 人TIM3(ECD); pFUSE-IgG1-TIM3(ECD); not shown: TEV cleavage site at the C-terminus of TIM3(ECD); IgG1 Fc of the pFUSE-IgG1 vector
T1 sequence (looked up): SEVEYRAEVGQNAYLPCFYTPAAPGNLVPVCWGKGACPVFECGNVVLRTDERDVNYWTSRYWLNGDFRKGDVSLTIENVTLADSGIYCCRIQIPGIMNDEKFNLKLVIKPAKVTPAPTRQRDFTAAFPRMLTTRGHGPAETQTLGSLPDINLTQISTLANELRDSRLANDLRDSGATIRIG

- 阳性细胞比例 [1]: 98.1%
Molecule: TIM-3阳性抗体(bench marker，BMK; TSR-022) (antibody)

- 结合力 (阳性细胞的比例) [2]: > 80%
B1: Nb18 (VHH)
VHH: QVQLQESGGGLVQPGGSLRLSCAASGFTFSVADMSWVRQGPGKGFEWVSSINSDGVSTYYADSVKGRFTISRDNAENTLYLRANSLKTEDTAVYYCAIGHTPCTAGSCRRGQGTQVTVSS

- 结合力 (阳性细胞的比例) [2]: > 80%
B2: Nb27 (VHH)
VHH: QVQLQESGGGLVQPGGSLRLSCAAAGFTFSSSEMTWVRQAPGKGLEWVARISSTSAFTQYAGSVKGRFTISRDNAKNTLYLQLNSLKTEDTAMYYCAKDVYCGGQYCPPVGPGTQVTVSS

- binding result (TIM3(ECD)-Fc抗原): binds
B3: Nb17 (VHH)
VHH: QVQLQESGGGSVQAGGSLRLSCAASTTLYIASLGWFRQAPGKEREGVAAVDRDGNLDYADSVKGRFTFSRDHAKNTLYLQMNSLKPEDAAMYYCSAALSYVPAGRRLQPDAYNYWGQGTQVTVSS
notes: Camel VHH from the pMECS vector, made in E. coli; detected through HA tag (ELISA) or His tag (flow cytometry); also called 抗体株17

- 结合力 (阳性细胞的比例) [2]: > 80%
B4: Nb23 (VHH)
VHH: QVQLQESGGGSVQTGGSLRLSCTASGFTFSSADMSWVRQAPGKGLEWVSSINSGGGWTDYADSVQGRFTISRDNGKNTLYLQMNSLKTEDTAVYYCTIGNTYCSRGACLRGQGTQVTVSS

- 结合力 (阳性细胞的比例) [2]: > 80%
B5: Nb24 (VHH)
VHH: B4 VHH with S11L, T14P, T23A, S31V, W57R, D59Y, V64M, Q65K, N100H, R105G

- binding result (TIM3(ECD)-Fc抗原): binds
- 结合力 (阳性细胞的比例) [2]: > 80%
B6: Nb21 (VHH)
VHH: QVQLQESGGGSVQAGGSLRLYCAASKITYVSSCMGWFRQAPGKEREGVASIDRDGSTTYADSVKGRFTISRDNAKDSLYLQMNSLKPEDTAMYYCAADWGRWCSLEKAVDFVYWGQGTQVTVSS
notes: Camel VHH from the pMECS vector, made in E. coli; detected through HA tag (ELISA) or His tag (flow cytometry); also called 抗体株21

- binding result (TIM3(ECD)-Fc抗原): binds
- 结合力 (阳性细胞的比例) [2]: > 80%
B7: Nb16 (VHH)
VHH: QVQLQESGGGSVQAGGSLRLSCTASRSTYCMGWFRQAPGKEREGVAIISSDGRTNYADPVKGRFTISKDNAKNTMFLQMNSLKPEDTAMYYCATRPGNSCGTGIDMPYWGKGTQVTVSS
notes: Camel VHH from the pMECS vector, made in E. coli; detected through HA tag (ELISA) or His tag (flow cytometry); also called 抗体株16

- binding result (TIM3(ECD)-Fc抗原): binds
- 结合力 (阳性细胞的比例) [2]: > 80%
B8: Nb22 (VHH)
VHH: QVQLQESGGGSVRAGGSLRLSCAASGYTYSLYCMGWFRQAPGKEREGVAAISAGGGTTYYSDAVKGRFTISRDNAKKTLYLQMNSLNPEDTAMYYCARSGGYCGLLEYPFTSWGPGTQVTVSS
notes: Camel VHH from the pMECS vector, made in E. coli; detected through HA tag (ELISA) or His tag (flow cytometry); also called 抗体株22

- binding result (TIM3(ECD)-Fc抗原): binds
B9: Nb15 (VHH)
VHH: QVQLQESGGGSVQAGGSLKLSCTASVWIFSNCAMAWYRQAPGKEREFVSAIGSFRDTNYADSVKGRFTISRDNAKNTGYLQMNSLKPEDSAMYYCKIQCGTQVNWGQGTQVTVSS
notes: Camel VHH from the pMECS vector, made in E. coli; detected through HA tag (ELISA) or His tag (flow cytometry); also called 抗体株15

- binding result (TIM3(ECD)-Fc抗原): binds
B10: Nb19 (VHH)
VHH: QVQLQESGGGSVQAGGSLRLSCAASTYTVVRNCFGWFRQAPGKKREGVAVIDRDGSTRYAASVKGRFTISKDNAKNALYLQMSSLEPEDTAVYYCAADWNNDRSCPLWADGFGYWGQGTQVTVSS
notes: Camel VHH from the pMECS vector, made in E. coli; detected through HA tag (ELISA) or His tag (flow cytometry); also called 抗体株19

- binding result (TIM3(ECD)-Fc抗原): binds
- 结合力 (阳性细胞的比例) [2]: > 80%
B11: Nb26 (VHH)
VHH: QVQLQESGGGLVQPGGSLRLSCTASGSTFSTALMGWFRQAPGKEREGVAVISAGGGSTWYADSVKGRFTISRDNTKNTVFLQMISLKPEDTAMYYCASSNSLWTRESRYFGYWGQGTQVTVSS
notes: Camel VHH from the pMECS vector, made in E. coli; detected through HA tag (ELISA) or His tag (flow cytometry); also called 抗体株26

- binding result (TIM3(ECD)-Fc抗原): binds
- 结合力 (阳性细胞的比例) [2]: > 80%
B12: Nb25 (VHH)
VHH: QVQLQESGGGSVQAGGSLRLSCAASVDIYRTYCMGWFRQAPGKQREGVAAISTDGRIRYANSVEGRFTISKDNANNTLYLQMNSLKPEDTAMYFCAADSARCGLWLGGGYPNYWGRGTQVTVSS
notes: Camel VHH from the pMECS vector, made in E. coli; detected through HA tag (ELISA) or His tag (flow cytometry); also called 抗体株25

- binding result (TIM3(ECD)-Fc抗原): binds
B13: Nb4 (VHH)
VHH: QVQLQESGGGSVQAGGSLRLSCTASGYTYSRACMGWFRQAPGKQREWVSGIRHDGSTSYADSVKGRFTISRDNAKNTLYLQMNSLKPEDTAMYYCGADIDCRQSRPPYWGQGTQVTVSS
notes: Camel VHH from the pMECS vector, made in E. coli; detected through HA tag (ELISA) or His tag (flow cytometry); also called 抗体株4

- binding result (TIM3(ECD)-Fc抗原): binds
B14: Nb2 (VHH)
VHH: B13 VHH with A14V, A74T
notes: Camel VHH from the pMECS vector, made in E. coli; detected through HA tag (ELISA) or His tag (flow cytometry); also called 抗体株2

- binding result (TIM3(ECD)-Fc抗原): binds
B15: Nb8 (VHH)
VHH: B13 VHH with T57I, S58T, S84N, Q103G, S104T
notes: Camel VHH from the pMECS vector, made in E. coli; detected through HA tag (ELISA) or His tag (flow cytometry); also called 抗体株8

- binding result (TIM3(ECD)-Fc抗原): binds
B16: Nb6 (VHH)
VHH: B13 VHH with A14V, T57I, S58T, Q103G, S104T
notes: Camel VHH from the pMECS vector, made in E. coli; detected through HA tag (ELISA) or His tag (flow cytometry); also called 抗体株6

- binding result (TIM3(ECD)-Fc抗原): binds
B17: Nb5 (VHH)
VHH: B13 VHH with A14V, F67S
notes: Camel VHH from the pMECS vector, made in E. coli; detected through HA tag (ELISA) or His tag (flow cytometry); also called 抗体株5

- binding result (TIM3(ECD)-Fc抗原): binds
B18: Nb7 (VHH)
VHH: B13 VHH with T23A, T57I, S58T, Q103G, S104T
notes: Camel VHH from the pMECS vector, made in E. coli; detected through HA tag (ELISA) or His tag (flow cytometry); also called 抗体株7

- binding result (TIM3(ECD)-Fc抗原): binds
B19: Nb3 (VHH)
VHH: B13 VHH with A14V, E46D
notes: Camel VHH from the pMECS vector, made in E. coli; detected through HA tag (ELISA) or His tag (flow cytometry); also called 抗体株3

- binding result (TIM3(ECD)-Fc抗原): binds
B20: Nb28 (VHH)
VHH: QVQLQESGGGSVQAGGSLRLSCAATKALVISCLAWFRQAPGKEREWVALIGRDGSTSYPDSVKGRFTFSKNTAKNTLELQMNNLKPEDTGAYYCAAATKQDGIPLNPADYDIWGRGTQVTVSS
notes: Camel VHH from the pMECS vector, made in E. coli; detected through HA tag (ELISA) or His tag (flow cytometry); also called 抗体株28

- 结合力 (阳性细胞的比例) [2]: > 80%
B21: Nb20 (VHH)
VHH: QVQLQESGGGLVQPGGSLRLSCAASGFTFSVADMTWVRQGLGKGFEWVASVNSDGGSTYYADSVKGRFTISRDNAKNTLYLRLNSLKTEDTAVYYCAIGRTPCTGGFCHRGQGTQVTVSS
